± gives the half width of the 95% confidence interval.
experiment: folding stability dG unfold (combined trypsin and chymotrypsin); higher = more stable
Procedure, shortened: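 Unfolding free energy was derived, per protease or combined, by relating Bayesian-fitted K50 values from sequencing counts to a sequence-predicted unfolded-state K50 and a shared folded-state K50. The underlying digests exposed cysteine-free mini-proteins under 80 residues, in a PA-tagged cDNA display construct, to trypsin and chymotrypsin at 11 threefold-diluted concentrations and to a no-protease condition. A filter kept only designs with AlphaFold2 dimer inter-PAE above 15.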

Sequence	folding stability dG unfold
SAGGSAGGSAGMIVIETPLSEYEKLKSPDIEVLEKSEGKVVIEIKVPPEPFYDEEGKPLKSAGGSAGGSAGG [r11_828_JUSTAS]	0.286 ± 0.13 kcal/mol
SAGGSAGGSGMISKTEVERLPDGTVIERKEYPEGGLTTLKIYKVPPDGVPTLVEEKLVPEKLISAGGSAGGS [r12_695_JUSTAS]	-0.69 ± 0.24 kcal/mol
SAGGSAGGSAGGMEGFTAVTFTTTTSSNGTRTTTVTTTTPDGTVTTTTTTTPVTPPPNTASAGGSAGGSAGG [r11_998_JUSTAS]	0.155 ± 0.14 kcal/mol
SAGGSAGGDGDFRVSIDPEELPDGQEYKISIQSPDGKPIAEIPIRIPLPPPKPERDDNGKPKPVSAGGSAGG [r6_487_TrROS]	0.216 ± 0.099 kcal/mol
SAGGSAGGSAMTIQINNLPPEKIEEAADDHGIDTQRNEESDSYYIEMPPNDMDEIKEALGWSAGGSAGGSAG [r3_354_TrROS]	0.222 ± 0.17 kcal/mol
SAGGLDSAPPVEVKVEVEEEKTKDPNSDSEVTKYKITVTTTVGGTPIVTEEESIVYKKPDGTIIVEKKSAGG [r19_260_JUSTAS]	-0.242 ± 0.96 kcal/mol
SAGGSAGGSAKKTAVIELIDPKDPKPKTITIPFDLKDGKTSLEELKKLVPDYTITSIAVFDDSAGGSAGGSA [r18_494_TrMRF]	< -1 kcal/mol
SAMLVVLKDPKTGKLILVDPEQLSPEYLERGVEPVREIPPLEVVEVESEEEAEEIRKKYPEKILVTLGPSAG [r14_638_JUSTAS]	-0.121 ± 0.26 kcal/mol
SAGGSAGGSSMPVKVTRTPVPSSAPPSTEFLETVTYPDGTVTTYRFRRDDGSVTSVRVSTSPASAGGSAGGS [r12_1049_JUSTAS]	< -1 kcal/mol
SAGGSPIYVRIEWEPPGNGKEREKEIPIKNVDSPDQLVDEAKEEAMKDGGPIKDIEVYDPDDGRPFPLSAGG [r13_771_TrROS]	-0.192 ± 0.53 kcal/mol
SAGPKNAKPIGTVRIRNPNGRKINIMQWPNPIMVHIKPPDGKKREVPIRGAPMEEILDELAEDGWEVEPSAG [r5_613_TrROS]	< -1 kcal/mol
SAGGSAGGSAGGGAMSPEPLGFKKVETKVEVVGGSPVIVVKLETPEGELELELPPDAKLSAGGSAGGSAGGS [r10_968_JUSTAS]	< -1 kcal/mol
SAGGSAGGSAMKEYVVASRGYDPATGLYSLTIESSEGKKVKNVTFDDPSNPEKAINEAIAKESAGGSAGGSA [r18_479_JUSTAS]	-0.829 ± 0.35 kcal/mol
SAGGSAGGSAGPEIVLEGKPVELEVVEVGDKPVLIARFPDHYVVIDPEPDVIRLFSSEELSAGGSAGGSAGG [r11_9_TrMRF]	-0.449 ± 0.11 kcal/mol
SAGGKIREVEIEEFDPDNGWVMITFNMPPEDLDKMKPIKLPGIKDVHWDPGNDHISASMPLEEAKEASAGGS [r16_614_TrROS]	-0.5 ± 0.41 kcal/mol
SAGGSAGGSAGGMPVTVEVKEEELPGGEKVITVTVTYPDPVVETLEVKKLPPVDPNNKPSAGGSAGGSAGGS [r10_684_JUSTAS]	-0.103 ± 0.3 kcal/mol
SAGGSAGGKKKFKVEKITEIKVEKLENGEEVIVKIRLKNGEEIEIPAKDIKLEDLPEGAEIEVISAGGSAGG [r6_609_TrROS_Hall]	< -1 kcal/mol
SAGMTVEEVAAEIIASHPPSSTSVTLEVDVGPKPVRVTVEILPDPETGRPVPRVTVTDPNKNVTTEYVVSAG [r5_236_JUSTAS]	-0.632 ± 0.39 kcal/mol
SAGGSAGGSAGDEKVPFFVRIIDPKNGKPVREFPVEVDPGKIKIPKELAENMPPDNVEIYSAGGSAGGSAGG [r11_725_TrROS]	< -1 kcal/mol
SAMDIEIEPTEGMMEIKLPGKEIHIMQHPNYMHIQIKYPEGEPVSIPIDPNSPPEDMIDNLLKLLEKAGSAG [r14_618_TrROS]	-0.499 ± 0.55 kcal/mol
SAGGSAGGSASKYVKVTVRLTPPDGTTRTVEITDPNKTVEEIIASLPSDEPVEVTEVEELPPSAGGSAGGSA [r18_32_JUSTAS]	-0.806 ± 0.49 kcal/mol
SAGPKVVKIEFLEDNTAKITVEVGSKPVEVEVPVGSVFLIPGGEKIEVIEPGKAKVSPLPEVDVDPEKSAGG [r19_17_TrMRF]	< -1 kcal/mol
SAGGSAGGSAPIVRLEFGPVIPLPDMSPDELKEKTAELVPEEYREKIKIVSVLDPDNPKEISAGGSAGGSAG [r3_340_TrMRF]	< -1 kcal/mol
SAGGSAGGSALSPDDVEPIDEEPFHNPGGNPMNIGIWKNPDDGKPFIRNPGNGNPFPADDLSAGGSAGGSAG [r3_181_TrROS]	< -1 kcal/mol

Sequence	folding stability dG unfold
SAGGSAGGSAPKPKIEPVNNTITIDIPPKENVQIFFPNGKQEEFPVEPGKEIKIPPGMYLYPSAGGSAGGSA [r18_452_TrROS]	< -1 kcal/mol
SAGGSAMKTLTATFSDGRSVTVEPENRTVTVSTPESSISTIPVPPDVPEVTITTPSGVTITLTVDTSAGGSA [r2_385_JUSTAS]	-0.107 ± 0.12 kcal/mol
SAGGSAGGSAGVIEVPIEELENLPDDVKVVPTENTAVIYNEKNPIVVPKNEPVLIAPSDKSAGGSAGGSAGG [r17_91_TrMRF]	< -1 kcal/mol
SAGGMKTTFTITHPDAEKAREALEKAVPSDLDVEPEFTPTPDGYTTTVTVPAEHPEVAAAALAAALASAGGS [r16_43_JUSTAS]	< -1 kcal/mol
SAGGSAGGSAGGKIKVVFELPDAPLFLVAEADSPEELLERAVKLEEELGVPLKVVKVEGSAGGSAGGSAGGS [r10_1087_TrMRF]	< -1 kcal/mol
SPKIEIEPMPPNMFIAKIRDPEKNKKVSIHIPPNMPPGQPMQVYDPDKPKWVPFNEIEELLKKGLPVEIYSA [r9_250_TrROS]	-0.496 ± 0.98 kcal/mol
SAGGSAGGSKKVVTYESVTLTVLVERTLPDPEGNPVTTTRVVEEPVRVTKVDFDTKVETYVVGSAGGSAGGS [r20_58_JUSTAS]	-0.623 ± 0.33 kcal/mol
SAGGSAKLEINIIIPGMPPERAKRKARNIAAELRKQGLPKENIKDVDIKVIVMPWRRDPDNKWKPMSAGGSA [r15_684_TrROS]	-0.0462 ± 0.12 kcal/mol
SAGGMYTLSEKTLPDGSKLLTVTRPDKPEEVFLPKEAENLPPETPVTTRGAGGEEVRPVAEILPPALLSAGG [r13_97_JUSTAS]	-0.215 ± 0.18 kcal/mol
SAGGSAGGSAGPKPIRIKVKWRNEKDGEKRKVTIPIPPGMPLEELIKNADPNQVRDVEIVSAGGSAGGSAGG [r11_386_TrROS]	< -1 kcal/mol
SAGGSAGGSAGGPSAVSSSSSSRTTTVPGTGTPLRVSSTTTTLDAATGASTTTTTTSPGASAGGSAGGSAGG [r11_1029_JUSTAS]	< -1 kcal/mol
SAGPPNMEPVETHTFPFPGKKIKIKVYRNPDGHVKIKLEDPGKKIEQSAPVPPGEPVEIPIRLPNGKPISAG [r5_878_TrROS]	< -1 kcal/mol
SAGGSAEPPVKEIAEKLIKKSKKPIIATVVEKKKDGYLVTKVKYIPNTGKPIIKVKKITPEELKKKSAGGSA [r15_156_TrMRF]	-0.785 ± 0.7 kcal/mol
SAGGSAGGKIEIVIEGLSEEEVEALAKELRDAGLEIEVTVVPPPAPPPLTAEELAKNPEALKALSAGGSAGG [r6_804_TrROS_Hall]	0.02 ± 0.26 kcal/mol
SAGMTITKTEEFPKGPGSVTRTTVTLPNGKVVVEETITLEDPSVTKTVTKTIEPADGTVLETTTTTVPASAG [r5_108_JUSTAS]	-0.418 ± 0.3 kcal/mol
SMEIKVTVEEKDGKKYVTIEIKLSEEELKGKELTEEEIEELARELAKKLGIKEVKIERLPNGTYRIVIELSA [r9_883_TrROS_Hall]	> 6 kcal/mol
SAGGSAGGSAGSSLPPDARYTTKVTVKTPFSKTLSLSEYQKLPPSEIKGIEIEKEVVPVESAGGSAGGSAGG [r11_899_JUSTAS]	-0.927 ± 0.92 kcal/mol
SAGGETEVVETNASPAELAERVAEALAAGREVTVTLPDGTVLDAGPDLADLPADTPVRLEFTPAVAASAGGS [r16_31_JUSTAS]	0.257 ± 0.17 kcal/mol
SAGGSGLRVGDVVEAEGVVVPDPETRLRRAVFRFPDFVVVEVVEVPEDVAPDEEIPFPVRIDAIVPSAGGSA [r2_113_TrMRF]	-0.645 ± 0.17 kcal/mol
SAGGSAPVTPDELVERVMQYIQGQNGMPPGDTPEQMRDNGMPIKIPITVEDPDGEPIAEVEIEFPMSAGGSA [r15_391_TrROS]	-0.0929 ± 0.24 kcal/mol
SANFDKAPPIEVKTEVSSFPADEEKIDPKTGKKSKRKRTITPVTVTKDGKTYTSTTTTYPDGSTETTTSSAG [r14_225_JUSTAS]	-0.249 ± 0.24 kcal/mol
SAGGSAGGSAGGGLYNVVVTGKGEERVLPAKSPDDVKEALEEAGLEIKSIHPETGIVEAGSAGGSAGGSAGG [r7_726_TrMRF]	< -1 kcal/mol
SAGGFKITEVEKDEKKGYPWVSIRIPPKSTLKKLKNMPGPVRIHNPEPGQWIHMPVDDPEEFLDKLLKSAGG [r13_604_TrROS]	-0.516 ± 0.94 kcal/mol

— the supplement of paper PMC12764529
